Measured values reported in patent US20230218753A1.
pEC50, pIC50: −log10 of the molar value.

Columns and labels:
[1] = target: activated human complement C1s (UniProt P09871); assay: direct binding
[2] = target: activated human complement C1s (UniProt P09871); assay: competition binding with 50 pM biotinylated TNT005

Chain of activated human complement C1s (P09871 16-688): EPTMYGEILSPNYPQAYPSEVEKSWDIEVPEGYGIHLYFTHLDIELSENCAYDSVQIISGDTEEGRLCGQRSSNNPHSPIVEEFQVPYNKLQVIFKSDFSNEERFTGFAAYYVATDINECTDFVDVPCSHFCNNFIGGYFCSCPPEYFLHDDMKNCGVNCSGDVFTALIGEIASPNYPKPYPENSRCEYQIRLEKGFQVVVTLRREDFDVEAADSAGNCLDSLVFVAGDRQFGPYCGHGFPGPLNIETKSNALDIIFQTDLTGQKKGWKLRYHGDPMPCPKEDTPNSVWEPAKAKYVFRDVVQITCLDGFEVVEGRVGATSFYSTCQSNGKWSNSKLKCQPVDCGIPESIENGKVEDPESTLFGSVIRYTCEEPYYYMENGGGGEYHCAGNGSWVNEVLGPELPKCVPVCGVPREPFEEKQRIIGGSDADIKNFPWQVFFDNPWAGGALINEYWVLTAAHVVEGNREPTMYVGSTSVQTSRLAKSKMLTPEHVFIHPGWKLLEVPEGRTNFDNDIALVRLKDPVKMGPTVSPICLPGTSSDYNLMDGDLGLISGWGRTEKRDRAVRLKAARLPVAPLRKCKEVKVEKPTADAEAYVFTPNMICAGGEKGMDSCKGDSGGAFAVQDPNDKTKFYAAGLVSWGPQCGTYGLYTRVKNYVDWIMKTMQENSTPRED

pEC50 [1]: 10.25
pIC50 [2]: 10.40
Substance: TNT005
